Measured values published in US20140056902A1 (Kyowa Kirin, published 2014).
Changes are numbered by the printed parent chain.

T1: human mature dimer BMP9 recombinant protein (manufactured by R&D systems, Cat#3209-BP) (human, UniProt Q9UK05 320-429)
T1 construct: Bought protein; also called human BMP9; human BMP9 recombinant protein (manufactured by R&D systems)
T1 sequence: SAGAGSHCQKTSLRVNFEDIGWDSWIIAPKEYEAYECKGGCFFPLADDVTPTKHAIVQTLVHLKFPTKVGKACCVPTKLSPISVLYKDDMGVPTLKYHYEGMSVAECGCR

B1: human mature dimer BMP10 recombinant protein (manufactured by R&D systems, Cat#2926-BP) (ligand)
chain: NAKGNYCKRTPLYIDFKEIGWDSWIIAPPGYEAYECRGVCNYPLAEHLTPTKHAIIQALVHLKNSQKASKACCVPTKLEPISILYLDKGVVTYKFKYEGMAVSECGCR
B2: 10D5-2-3 antibody-humanized antibody HV0LV3 (antibody, V domains shown)
VH: EVQLVESGGGLVQPGGSLRLSCAASGFTFSNYWMNWVRQAPGKGLEWVGHIRLKSDNYATHYAESVRGRFTISRDDSKNSLYLQMNSLKTEDTAVYYCARGSNYVFAFWGQGTLVTVSS
VL: DIVMTQSPDSLAVSLGERATINCRASESVDNYGISFMNWFQQKPGQPPKLLIYAASNQGSGVPDRFSGSGSGTDFTLTISPLQAEDVAVYFCQQSKEVPWTFGQGTKLEIK
notes: Expressed from pKANTEX93
B3: 10D5-2-3 antibody-humanized antibody HV9LV6 (antibody, V domains shown)
VH: B2 VH with G8R, L18M, G49A, N79S, L81V, A94G, V95I, A99T, R100G
VL: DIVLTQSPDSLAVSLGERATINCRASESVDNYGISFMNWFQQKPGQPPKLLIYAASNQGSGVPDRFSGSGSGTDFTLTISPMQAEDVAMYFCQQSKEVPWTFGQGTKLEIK
notes: Expressed from pKANTEX93
B4: 10D5-2-3 antibody-humanized antibody HV0LV4 (antibody, V domains shown)
VH: B2 VH
VL: B2 VL with M4L, F40Y, L82M, V89M, F91Y
notes: Expressed from pKANTEX93
B5: 10D5-2-3 antibody-humanized antibody HV9LV4 (antibody, V domains shown)
VH: B2 VH with G8R, L18M, G49A, N79S, L81V, A94G, V95I, A99T, R100G
VL: B2 VL with M4L, F40Y, L82M, V89M, F91Y
notes: Expressed from pKANTEX93
B6: 10D5-2-3 chimeric antibody (c10D5-2-3 antibody) (antibody, V domains shown)
VH: EVKLEESRGGLVQPGGSMKLSCVASGFTFSNYWMNWVRQSPEKGLEWVAHIRLKSDNYATHYAESVRGRFTISRDDSKSSVFLQMNNLRAEDTGIYYCTGGSNYVFAFWGQGTLVTVSA
VL: not shown
notes: Human chimeric antibody; The V regions were cloned into the humanized antibody expression vector pKANTEX93
B7: 3B7-3-3 antibody (antibody, mouse IgG1, V domains shown)
VH: EVQLQQSRPELVKPGASVKISCKASDYSFTDYYMNWVKQSPDKSLEWIGEISPSSGGTTYNQKFKAKATLTVDKSSSTAYMQLKSLTSEDSAVYYCATRGAFYFDYWGQGTALTVSS
VL: QIVLTQSPALMSAFPGEKVTMTCSASSSVSYMYWYQQKPRSSPKPWIYLTSNLASGVPTRFSGSGSGTSYSLTISSMEAEDAATYFCQQWSSNPRTFGGGTKLEIKR
notes: Mouse monoclonal from a BMP9 KO mouse hybridoma; mouse IgG1 heavy chain, kappa light chain

Key:
[1] = molecular target: T2, full-length human ALK1 expressed on the reporter cell line ALK1/p(GCCG)12-Luc/HepG2(38.5) (human, UniProt P37023 22-503); assay: cell-based or functional assay
T2 sequence (P37023 22-503 limits assumed): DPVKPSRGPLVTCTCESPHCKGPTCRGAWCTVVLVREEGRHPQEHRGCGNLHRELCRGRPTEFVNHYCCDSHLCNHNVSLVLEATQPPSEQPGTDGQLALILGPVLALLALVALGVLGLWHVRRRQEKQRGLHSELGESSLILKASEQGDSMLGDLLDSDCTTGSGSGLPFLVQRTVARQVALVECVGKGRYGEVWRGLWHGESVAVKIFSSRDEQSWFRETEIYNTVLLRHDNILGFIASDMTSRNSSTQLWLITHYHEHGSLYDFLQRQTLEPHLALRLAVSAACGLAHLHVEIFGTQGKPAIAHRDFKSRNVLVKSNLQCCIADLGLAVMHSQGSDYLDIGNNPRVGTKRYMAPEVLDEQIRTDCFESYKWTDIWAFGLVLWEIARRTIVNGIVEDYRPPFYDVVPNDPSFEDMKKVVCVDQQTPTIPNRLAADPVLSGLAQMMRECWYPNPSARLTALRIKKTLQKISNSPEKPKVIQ

[2] = molecular target: T2, full-length human ALK1 expressed on the …; assay: cell-based or functional assay; remark: listed apart in the source
[3] = molecular target: T1, human mature dimer BMP9 recombinant …; assay: SPR (Biacore T100), antibody captured on anti-human IgG, human BMP9 as analyte
Method: (§1) For the purpose of comparing binding activity to human BMP9 between c10D5-2-3 antibody and 22 types of 10D5-2-3 antibody-humanized antibodies obtained in Example 22-7, binding activity to human BMP9 recombinant protein (manufactured by R&D systems) was measured by surface plasmon resonance (SPR) using a BiacoreT100 instrument (manufactured by GE Healthcare bioscience).
(§2) Anti-human IgG antibody was immobilized onto a CM5 sensor chip (manufactured by GE Healthcare bioscience) using a Human Antibody Capture Kit (manufactured by GE Healthcare bioscience) in accordance with the accompanying protocol. 0.4 μg/mL of c10D5-2-3 antibody or each humanized antibody was applied to the flow cell onto which anti-human IgG antibody was immobilized, at a flow rate of 10 μL/min for 2 minutes.
(§3) Subsequently, human BMP9 recombinant protein (manufactured by R&D systems, Cat#3209-BP) was subjected to 2-fold serial dilution starting from […] to give 5 concentrations, and applied at a flow rate of 10 μL/min, and association was monitored over 3 minutes and dissociation over 3 minutes at a flow of 10 μL/min. The sensorgram thus obtained was analyzed by BiaEvaluation Software (manufactured by GE Healthcare bioscience) to calculate the rate constant of each antibody.

[4] = molecular target: T1, human mature dimer BMP9 recombinant …; assay: SPR (Biacore T100), antibody captured on anti-human IgG, human BMP9 (R&D 3209-BP) as analyte, 5 concentrations from 1 nM
Method: as §1, §2, §3

[5] = molecular target: B1; assay: ELISA, immobilized antigen (100 ng/mL coat), biotin-labeled antibody at 100 ng/mL, absorbance 450-570 nm
Method: To examine specificity of the obtained antibodies to human BMP9, their binding ability to human BMP9 and human BMP10 having the highest homology to human BMP9 was tested by comparison. First, 100 ng/mL of human mature dimer BMP9 recombinant protein (manufactured by R&D systems, Cat#3209-BP), or human mature dimer BMP10 recombinant protein (manufactured by R&D systems, Cat#2926-BP) prepared in 50 mmol/L NaHCO₃ buffer (manufactured by Wako, Cat#191-01305) was added to a 96-well plate for ELISA (F96 MAXISORP NUNC-IMMUNO PLATE, manufactured by Thermo Fisher Scientific, Cat#442404) at an amount of 50 μL/well, and left at 4° C. overnight for adsorption.
Subsequently, 6D10-1-1 antibody, 10D5-2-3 antibody, 3B7-3-3 antibody, R&D antibody, or anti-BMP10 antibody (manufactured by R&D, Cat#MAB2926) that was labeled with biotin using a Biotin Labeling Kit-NH2 (manufactured by COSMO BIO, Cat#LK03) was prepared at a concentration of 100 ng/mL using 10% Super Block in TBST which was prepared by mixing SuperBlock and TBST at a ratio of 1:9. 50 μL/well thereof was aliquoted as a primary antibody, and left at room temperature for 1 hour.
The plate was washed with TBST five times, and 50 μL/well of the TMB substrate reagent (TMB+ Substrate-Chromogen, manufactured by Dako, Cat#S1599) was added for color-development. When proper color was developed, 50 μL/well of the 1 N sulfuric acid solution (manufactured by Wako, Cat#192-04755) was added, and absorbance (450 nm-570 nm) at a sample wavelength of 450 nm and at a reference wavelength of 570 nm was determined using a plate reader (manufactured by Spectra Max, Molecular Devices).

Row | Kd [4] [pM] | koff [4] [s⁻¹] | kon [4] [M⁻¹ s⁻¹] | Binder | other results
1 | – | – | – | B1 | EC50 (read off the curve); luciferase activity (RLU) of human ALK1 reporter cells, with 3 ug/mL 6D10-1-1 antibody alone (filled square) [1]: ~0.4 ng/mL; EC50 (read off the curve); luciferase activity (RLU) of human ALK1 reporter cells, with 3 ug/mL 10D5-2-3 antibody alone (filled square) [2]: ~0.3 ng/mL; EC50 (read off the curve); luciferase activity (RLU) of human ALK1 reporter cells, with the complex of 3 ug/mL 10D5-2-3 antibody and 2 ng/mL human BMP9 (open triangle) [2]: ~0.3 ng/mL; EC50 (read off the curve); luciferase activity (RLU) of human ALK1 reporter cells, with the complex of 3 ug/mL 10D5-2-3 antibody and 10 ng/mL human BMP9 (open circle) [2]: ~0.2 ng/mL
2 | – | – | – | B2 | binding result [3]: no binding (tested: human BMP9 up to 1 nM)
3 | 5.13 | 0.000325 | 6.34e+07 | B3 | –
4 | – | – | – | B4 | binding result [3]: no binding (tested: human BMP9 up to 1 nM)
5 | 6.38 | 0.000739 | 1.16e+08 | B5 | –
6 | 4.52 | 0.00024 | 5.32e+07 | B6 | –
7 | – | – | – | B7 | binding result [5]: no binding (tested: 100 ng/mL)
